Results as given in patent US20060211624A1, “Methods and compositions for the treatment of parkinson's disease and other alpha-synucleinopathies” (Goverment of the US, as Represented by, priority 2003, published 2006).

Target: purified recombinant human α-synuclein protein, P37840

B1: purified guinea pig liver tTGase (protein)
chain: AEDLILERCDLQLEVNGRDHRTADLCRERLVLRRGQPFWLTLHFEGRGYEAGVDTLTFNAVTGPDPSEEAGTMARFSLSSAVEGGTWSASAVDQQDSTVSLLLSTPADAPIGLYRLSLEASTGYQGSSFVLGHFILLYNPRCPADAVYMDSDQERQEYVLTQQGFIYQGSAKFINGIPWNFGQFEDGILDICLMLLDTNPKFLKNAGQDCSRRSRPVYVGRVVSAMVNCNDDQGVLQGRWDNNYSDGVSPMSWIGSVDILRRWKDYGCQRVKYGQCWVFAAVACTVLRCLGIPTRVVTNFNSAHDQNSNLLIEYFRNESGEIEGNKSEMIWNFHCWVESWMTRPDLEPGYEGWQALDPTPQEKSEGTYCCGPVPVRAIKEGHLNVKYDAPFVFAEVNADVVNWIRQKDGSLRKSINHLVVGLKISTKSVGRDEREDITHTYKYPEGSEEEREAFVRANHLNKLATKEEAQEETGVAMRIRVGQNMTMGSDFDIFAYITNGTAESHECQLLLCARIVSYNGVLGPVCSTNDLLNLTLDPFSENSIPLHILYEKYGDYLTESNLIKVRGLLIEPAANSYVLAERDIYLENPEIKIRVLGEPKQNRKLIAEVSLKNPLPVPLLGCIFTVEGAGLTKDQKSVEVPDPVEAGEQAKVRVDLLPTEVGLHKLVVNFECDKLKAVKGYRNVIIGPA
In the case of B1, the “formation of high molecular weight aggregates of α-synuclein (in vitro cross-linking reaction, SDS/PAGE and Western blot)” value is reported as “In the presence of DTT, the reduced form of tTGase induced the formation of high molecular weight aggregates of α-synuclein”.
